Measurements from article PMC9061257.

Target: pseudouridine kinase from Escherichia coli strain B (EcPUKI), wildtype (E. coli strain B) (UniProt P30235)
Experiment: SEC

Which stoichiometry N does the source give for “pseudouridine kinase from Escherichia coli strain B (EcPUKI), wildtype (from UniProt P30235 1-313) (enzyme)” here?
Its stoichiometry N is 2.
